Laboratory results published in PMC4057743, “Arabidopsis ABA Receptor RCAR1/PYL9 Interacts with an R2R3-Type MYB Transcription Factor, AtMYB44” (International Journal of Molecular Sciences, 2014).

Target: T1, His-ABI1 (Arabidopsis, UniProt P49597 1-434)
T1 construct: ABI1, type 2C protein phosphatase (PP2C), Arabidopsis; ORF subcloned into pET28a via BamH I and Hind III sites; source: Escherichia coli, purified
T1 sequence (looked up): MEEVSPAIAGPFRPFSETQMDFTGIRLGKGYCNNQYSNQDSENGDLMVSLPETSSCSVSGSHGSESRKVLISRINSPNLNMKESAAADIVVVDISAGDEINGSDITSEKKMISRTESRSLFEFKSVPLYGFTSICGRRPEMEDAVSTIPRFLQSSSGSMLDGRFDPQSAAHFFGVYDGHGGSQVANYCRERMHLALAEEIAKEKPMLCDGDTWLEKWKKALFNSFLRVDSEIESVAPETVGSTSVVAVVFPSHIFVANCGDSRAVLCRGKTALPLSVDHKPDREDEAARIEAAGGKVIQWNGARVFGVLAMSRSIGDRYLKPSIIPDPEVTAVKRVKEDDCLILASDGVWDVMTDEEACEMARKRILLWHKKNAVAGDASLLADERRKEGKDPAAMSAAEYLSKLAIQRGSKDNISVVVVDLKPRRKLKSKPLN
Assay: pull-down; competitive: 5 μg His-RCAR1/PYL9 with 0, 5 or 25 μg His-ABI1 or 25 μg His protein on immobilized GST-AtMYB44 (5 μg); 50 mM Tris-HCl pH 7.5, 100 mM NaCl, 1 mM EDTA, 0.05% β-mercaptoethanol, 0.2% Triton X-100, 10 mM MgCl2; 4 °C, 2 h; 10 μM ABA when indicated; anti-His blot
Settings: both partners purified

B1: His-RCAR1/PYL9 (receptor, Arabidopsis, UniProt Q84MC7 1-187, looked up)
chain: MMDGVEGGTAMYGGLETVQYVRTHHQHLCRENQCTSALVKHIKAPLHLVWSLVRRFDQPQKYKPFVSRCTVIGDPEIGSLREVNVKSGLPATTSTERLELLDDEEHILGIKIIGGDHRLKNYSSILTVHPEIIEGRAGTMVIESFVVDVPQGNTKDETCYFVEALIRCNLKSLADVSERLASQDITQ
notes: ABA receptor RCAR1/PYL9, Arabidopsis; ORF subcloned into pET28a via EcoR I and Xho I sites; source: Escherichia coli, purified
B1: binds.
